Assay results: paper PMC3736351 (2014)

How the values were obtained:
[1] = molecular target: T1, GHRH receptor (spleen cells, 3- and 14-month old rats) (Rattus norvegicus, UniProt Q02644); assay: homologous competitive radioligand binding
T1 chain: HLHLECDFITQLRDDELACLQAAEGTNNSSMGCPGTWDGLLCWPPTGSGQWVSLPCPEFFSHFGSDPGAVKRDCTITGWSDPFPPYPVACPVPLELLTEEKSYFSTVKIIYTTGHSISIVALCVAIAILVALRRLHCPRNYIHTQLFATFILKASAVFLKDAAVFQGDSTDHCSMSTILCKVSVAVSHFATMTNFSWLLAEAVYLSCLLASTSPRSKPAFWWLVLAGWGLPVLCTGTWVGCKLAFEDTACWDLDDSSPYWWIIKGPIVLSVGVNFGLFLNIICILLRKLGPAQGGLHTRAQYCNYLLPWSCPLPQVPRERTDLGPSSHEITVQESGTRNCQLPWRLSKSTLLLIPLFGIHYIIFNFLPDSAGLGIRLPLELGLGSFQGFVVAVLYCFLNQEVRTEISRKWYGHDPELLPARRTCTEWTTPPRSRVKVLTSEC

[2] = molecular target: T2, GHRH receptor (thymus cells, 3- and 14-month old rats) (Rattus norvegicus, UniProt Q02644); assay: homologous competitive radioligand binding
T2 chain: T1 chain

Kd [1]: 2 nM
Kd [2]: 1 nM
Binder: MPLWVFFFVILTLSNSSHCSPPPPLTLRM [GHRH 1-29]
